Article PMC5645524

How the values were obtained:
[1] = target: Actin of the thin filament in human ventricular myocytes (human (endogenous in ventricular myocytes)) (UniProt P68032); experiment: autocorrelation function of fluctuations of fluorescence anisotropy (confocal, about 6 molecules); in situ, A-band of isolated EDC-cross-linked myocytes from failing human left ventricles, isometric contraction in contracting solution (5 mM ATP, 0.1 mM CaCl2, pH 7.5); 20 s records, time resolution 10 ms; three-state fit
[2] = target: Actin of the thin filament in human ventricular myocytes (human (endogenous in ventricular myocytes)) (UniProt P68032); experiment: autocorrelation function of fluctuations of fluorescence anisotropy (confocal, about 6 molecules); in situ, A-band of isolated EDC-cross-linked myocytes from failing human right ventricles, isometric contraction in contracting solution (5 mM ATP, 0.1 mM CaCl2, pH 7.5); 20 s records, time resolution 10 ms; three-state fit

k (DISS) (rate of dissociation of the cross-bridge from the thin filament during contraction) [1]: 2.24 | k (DISS) (rate of dissociation of the cross-bridge from the thin filament during contraction) [2]: 2.36
Substance: Ventricular myosin cross-bridge carrying the exchanged fluorescent LC (from UniProt P12883 1-1935; P05976 1-194; P10916 1-166) (complex)
